In assay [1] the target is Alexa Fluor 647 maleimide-labeled LukS-K281C-Y113H (Staphylococcus aureus). Kind of assay: single-molecule step-wise photobleaching.
Assay [2] deals with human C5a receptor with C-terminal mGFP, on HEK cells (human) (UniProt P21730). Kind of assay: single-molecule step-wise photobleaching.
Chain of UniProt P21730 (P21730 whole entry): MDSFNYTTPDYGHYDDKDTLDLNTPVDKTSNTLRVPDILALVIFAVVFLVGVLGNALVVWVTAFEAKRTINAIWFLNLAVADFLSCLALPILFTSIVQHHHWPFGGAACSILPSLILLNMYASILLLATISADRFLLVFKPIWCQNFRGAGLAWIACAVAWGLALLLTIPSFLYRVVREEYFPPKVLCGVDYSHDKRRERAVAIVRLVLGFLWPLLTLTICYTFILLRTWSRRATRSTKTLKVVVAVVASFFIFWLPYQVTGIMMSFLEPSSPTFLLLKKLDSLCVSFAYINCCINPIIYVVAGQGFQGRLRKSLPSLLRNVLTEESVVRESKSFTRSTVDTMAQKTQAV

In assay [1], “Alexa Fluor 647 maleimide-labeled LukS-K281C-Y113H (natural protein)” came in with a stoichiometry N of 3.9 molecules. In addition, the stoichiometry N (hC5aR molecules per LukS molecule) in assay [2] lay within 4 to 5.

Values taken from paper doi:10.1101/127514.
